Results: US20240368250A1 (Ablynx, published 2024)
Changes are numbered by the printed parent chain. Numbers in names are those of the source.

B1: TP008 (Fc fusion)
chain 1: DVQLVESGGGLVQPGGSLRLSCAASGLTFSTNPMYWYRQAPGKQRELVASISSRGITNYADSVKGRFTISRDNSKNTVYLQMNSLRPEDTAVYYCRLASLSSGTVYWGQGTLVTVSSDKTHTCPPCPAPEAAGGPSVFLFPPKPKDTLMISRTPEVTCVVVDVSQEDPEVQFNWYVDGVEVHNAKTKPREEQFNSTYRVVSVLTVLHQDWLNGKEYKCKVSNKGLPSSIEKTISKAKGQPREPQVYTLPPCQEEMTKNQVSLWCLVKGFYPSDIAVEWESNGQPENNYKTTPPVLDSDGSFFLYSKLTVDKSRWQEGNVFSCSVMHEALHNHYTQKSLSLSLGGGGGSGGGGSGGGGSGGGGSGGGGSGGGGSGGGGSEVQLVESGGGLVQPGGSLRLSCAASGLTFSTNPMYWYRQAPGKQRELVASISSRGITNYADSVKGRFTISRDNSKNTVYLQMNSLRPEDTAVYYCRLASLSSGTVYWGQGTLVTVSS
chain 2: DKTHTCPPCPAPEAAGGPSVFLFPPKPKDTLMISRTPEVTCVVVDVSQEDPEVQFNWYVDGVEVHNAKTKPREEQFNSTYRVVSVLTVLHQDWLNGKEYKCKVSNKGLPSSIEKTISKAKGQPREPQVCTLPPSQEEMTKNQVSLSCAVKGFYPSDIAVEWESNGQPENNYKTTPPVLDSDGSFFLVSKLTVDKSRWQEGNVFSCSVMHEALHNHYTQKSLSLSLG
notes: IgG4 FALA Fc knob-in-hole
B2: TP009 (Fc fusion)
chain 1: DVQLVESGGGLVQPGGSLRLSCAASGLTFSTNPMYWYRQAPGKQRELVASISSRGITNYADSVKGRFTISRDNSKNTVYLQMNSLRPEDTAVYYCRLASLSSGTVYWGQGTLVTVSSDKTHTCPPCPAPEAAGGPSVFLFPPKPKDTLMISRTPEVTCVVVDVSQEDPEVQFNWYVDGVEVHNAKTKPREEQFNSTYRVVSVLTVLHQDWLNGKEYKCKVSNKGLPSSIEKTISKAKGQPREPQVYTLPPCQEEMTKNQVSLWCLVKGFYPSDIAVEWESNGQPENNYKTTPPVLDSDGSFFLYSKLTVDKSRWQEGNVFSCSVMHEALHNHYTQKSLSLSLG
chain 2: DVQLVESGGGVVQPGGSLRLSCAASGFTFRSFGMSWVRQAPGKGPEWVSSISGSGSDTLYADSVKGRFTISRDNSKNTLYLQMNSLRPEDTALYYCTIGGSLSRSSQGTLVTVSSDKTHTCPPCPAPEAAGGPSVFLFPPKPKDTLMISRTPEVTCVVVDVSQEDPEVQFNWYVDGVEVHNAKTKPREEQFNSTYRVVSVLTVLHQDWLNGKEYKCKVSNKGLPSSIEKTISKAKGQPREPQVCTLPPSQEEMTKNQVSLSCAVKGFYPSDIAVEWESNGQPENNYKTTPPVLDSDGSFFLVSKLTVDKSRWQEGNVFSCSVMHEALHNHYTQKSLSLSLG
notes: IgG4 FALA Fc (knob-in-hole); irrelevant ISVD N-terminal on chain 1, ALB23002 N-terminal on chain 2
B3: TP003 (Fc fusion)
chain 1: B2 chain 1
chain 2: B2 chain 1 with Y246C, C251S, W263S, L265A, Y304V
notes: IgG4 FALA Fc (knob-in-hole) with two N-terminal non-targeting ISVDs; also called control ISVD-Fc construct
B4: T-0263-00_TP117 (antibody, human IgG1, kappa)
heavy 1: not shown
heavy 2: EVQLVESGGGLVQPGGSLRLSCAASGFNIRDTYIHWVRQAPGKGLEWVARIYPTQGYTRYADSVKGRFTISADTSKNTAYLQMNSLRAEDTAVYYCSRWGGEGFYAMDYWGQGTLVTVSSASTKGPSVFPLAPSSKSTSGGTAALGCLVKDYFPEPVTVSWNSGALTSGVHTFPAVLQSSGLYSLSSVVTVPSSSLGTQTYICNVNHKPSNTKVDKKVEPKSCDKTHTCPPCPAPELLGGPSVFLFPPKPKDTLMISRTPEVTCVVVDVSHEDPEVKFNWYVDGVEVHNAKTKPREEQYNSTYRVVSVLTVLHQDWLNGKEYKCKVSNKALPAPIEKTISKAKGQPREPQVCTLPPSRDELTKNQVSLSCAVKGFYPSDIAVEWESNGQPENNYKTTPPVLDSDGSFFLVSKLTVDKSRWQQGNVFSCSVMHEALHNRFTQKSLSLSPG
light: not shown
notes: Full-length IgG1 with knob-in-hole mutations (hole chain H435R, Y436F), no C-terminal fusion
B5: T-0263-00_TP118 (antibody, human IgG1, kappa)
heavy 1: not shown
heavy 2: B4 heavy 2
light: not shown
notes: Full-length IgG1 knob-in-hole with a C-terminal irrelevant ISVD (9GS) on chain 1; control of TP121

How the values were obtained:
[1] = target: T1, Human FcRn (biotinylated human FcRn) (human, UniProt P61769 21-119); assay: SPR Biacore 8K+, biotinylated hFcRn on SA chip (~600 RU), pH 6.0, bivalent analyte fit
T1 construct: Biotinylated human FcRn captured on a Series S Sensor Chip SA; also called human neonatal Fc receptor; hFcRn

[2] = target: T1, Human FcRn (biotinylated human FcRn); assay: SPR Biacore 8K+, biotinylated hFcRn on SA chip (~1000-2000 RU), pH 6.0, no HSA, 1:1 fit
[3] = target: T1, Human FcRn (biotinylated human FcRn); assay: SPR Biacore 8K+, biotinylated hFcRn on SA chip (~600 RU), pH 6.0, bivalent analyte fit (KD1)
[4] = target: T1, Human FcRn (biotinylated human FcRn); assay: SPR Biacore 8K+, biotinylated hFcRn on SA chip (~600 RU), pH 6.0, bivalent analyte fit (ka1)
[5] = target: T1, Human FcRn (biotinylated human FcRn); assay: SPR Biacore 8K+, biotinylated hFcRn on SA chip (~600 RU), pH 6.0, bivalent analyte fit (kd1)
[6] = target: T1, Human FcRn (biotinylated human FcRn); assay: SPR Biacore 8K+, biotinylated hFcRn on SA chip (~1000-2000 RU), pH 6.0, no HSA, bivalent analyte fit
[7] = target: T1, Human FcRn (biotinylated human FcRn); assay: SPR Biacore 8K+, biotinylated hFcRn on SA chip (~1000-2000 RU), pH 6.0, no HSA, bivalent analyte fit (KD1)
[8] = target: T1, Human FcRn (biotinylated human FcRn); assay: SPR Biacore 8K+, biotinylated hFcRn on SA chip (~1000-2000 RU), pH 6.0, no HSA, bivalent analyte fit (ka1)
[9] = target: T1, Human FcRn (biotinylated human FcRn); assay: SPR Biacore 8K+, biotinylated hFcRn on SA chip (~1000-2000 RU), pH 6.0, no HSA, bivalent analyte fit (kd1)
[10] = target: T1, Human FcRn (biotinylated human FcRn); assay: SPR Biacore 8K+, biotinylated hFcRn on SA chip (~1000-2000 RU), pH 6.0, with 30 uM HSA, bivalent analyte fit
[11] = target: T1, Human FcRn (biotinylated human FcRn); assay: SPR Biacore 8K+, biotinylated hFcRn on SA chip (~1000-2000 RU), pH 6.0, with 30 uM HSA, bivalent analyte fit (KD1)
[12] = target: T1, Human FcRn (biotinylated human FcRn); assay: SPR Biacore 8K+, biotinylated hFcRn on SA chip (~1000-2000 RU), pH 6.0, with 30 uM HSA, bivalent analyte fit (ka1)
[13] = target: T1, Human FcRn (biotinylated human FcRn); assay: SPR Biacore 8K+, biotinylated hFcRn on SA chip (~1000-2000 RU), pH 6.0, with 30 uM HSA, bivalent analyte fit (kd1)
[14] = target: T2, Human serum albumin (HSA; Sigma-Aldrich Cat No. A8763) (human, UniProt P02768 25-609); assay: SPR Biacore 8K+, HSA on CM5 chip, pH 6.0, 1:1 fit
[15] = target: T2, Human serum albumin (HSA; Sigma-Aldrich …); assay: SPR Biacore 8K+, HSA on CM5 chip, pH 7.4, 1:1 fit
[16] = target: T3, Mouse serum albumin (MSA; Albumin Bioscience Cat No. 2601) (mouse, UniProt P07724 25-608); assay: SPR Biacore 8K+, MSA on CM5 chip, pH 6.0, 1:1 fit
[17] = target: T3, Mouse serum albumin (MSA; Albumin …); assay: SPR Biacore 8K+, MSA on CM5 chip, pH 7.4, 1:1 fit
[18] = target: T1, Human FcRn (biotinylated human FcRn); assay: SPR Biacore 8K+, biotinylated hFcRn on SA chip (~700 RU), pH 6.0, bivalent analyte fit
[19] = target: T1, Human FcRn (biotinylated human FcRn); assay: SPR Biacore 8K+, biotinylated hFcRn on SA chip (~700 RU), pH 6.0, bivalent analyte fit (KD1)
[20] = target: T1, Human FcRn (biotinylated human FcRn); assay: SPR Biacore 8K+, biotinylated hFcRn on SA chip (~700 RU), pH 6.0, bivalent analyte fit (ka1)
[21] = target: T1, Human FcRn (biotinylated human FcRn); assay: SPR Biacore 8K+, biotinylated hFcRn on SA chip (~700 RU), pH 6.0, bivalent analyte fit (kd1)

Binder | ka2 [1] | kd2 [1] [s⁻¹] | Kd [2] [nM] | koff [2] [s⁻¹] | kon [2] [M⁻¹ s⁻¹] | Kd [3] [nM] | kon [4] [M⁻¹ s⁻¹] | koff [5] [s⁻¹] | ka2 [6] | kd2 [6] [s⁻¹] | Kd [7] [nM] | kon [8] [M⁻¹ s⁻¹] | koff [9] [s⁻¹] | ka2 [10] | kd2 [10] [s⁻¹] | Kd [11] [nM] | kon [12] [M⁻¹ s⁻¹] | koff [13] [s⁻¹] | ka2 [18] | kd2 [18] [s⁻¹] | other results
B1 | 28.7 1/RUs | 51.1 | 4.3 | 0.0086 | 2e+06 | 6.1 | 3.25e+06 | 0.0198 | 6.2e-05 1/RUs | 0.0021 | 75 | 270000 | 0.02 | 7.1 1/RUs | 120 | 190 | 260000 | 0.047 |  |  | 
B2 | 0.917 1/RUs | 10.2 | 3 | 0.0067 | 2.3e+06 | 15.1 | 22800 | 0.000344 | 0.0013 1/RUs | 0.018 | 150 | 240000 | 0.037 | 0.0074 1/RUs | 0.095 | 23 | 75000 | 0.0017 |  |  | Kd [14]: 2.7 nM; koff [14]: 0.00037 s⁻¹; kon [14]: 140000 M⁻¹ s⁻¹; Kd [15]: 6.7 nM; koff [15]: 0.0005 s⁻¹; kon [15]: 75000 M⁻¹ s⁻¹; Kd [16]: 13 nM; koff [16]: 0.002 s⁻¹; kon [16]: 160000 M⁻¹ s⁻¹; Kd [17]: 21 nM; koff [17]: 0.0026 s⁻¹; kon [17]: 130000 M⁻¹ s⁻¹
B3 | 0.011 1/RUs | 0.0329 | 3.6 | 0.0017 | 460000 | 3.09 | 77000 | 0.000238 | 0.15 1/RUs | 2.4 | 39 | 250000 | 0.0098 | 100 1/RUs | 1900 | 77 | 470000 | 0.036 |  |  | 
B4 |  |  |  |  |  |  |  |  |  |  |  |  |  |  |  |  |  |  | 3.1e-05 1/RUs | 0.001 | Kd [19]: 1300 nM; kon [20]: 120000 M⁻¹ s⁻¹; koff [21]: 0.16 s⁻¹
B5 |  |  |  |  |  |  |  |  |  |  |  |  |  |  |  |  |  |  | 2.3e-05 1/RUs | 0.00054 | Kd [19]: 1200 nM; kon [20]: 120000 M⁻¹ s⁻¹; koff [21]: 0.15 s⁻¹
